In the Immune Epitope Database (IEDB):
Values belong to the sequence of their own block, whether it stands above or below them.

Columns and labels:
[1] = biological target: HLA-A*30:01; experiment: IEDB peptide-MHC binding, purified MHC/direct/fluorescence; filed as Kd, often an IC50 or EC50 that approximates it; ≥ and ≤ were set here for values at or beyond the usual limits of such assays
[2] = biological target: HLA-A*01:01; experiment: as above
[3] = biological target: HLA-A*31:01; experiment: as above; conditions: source organism: Pseudomonas aeruginosa
[4] = biological target: HLA-A*69:01; experiment: as above
[5] = biological target: HLA-B*40:01; experiment: as above
[6] = biological target: HLA-B*07:02; experiment: as above
[7] = biological target: HLA-A*11:01; experiment: as above
[8] = biological target: HLA-A*02:01; experiment: as above
[9] = biological target: HLA-B*58:01; experiment: as above
[10] = biological target: HLA-B*15:01; experiment: as above
[11] = biological target: HLA-B*27:05; experiment: as above
[12] = biological target: HLA-B*08:01; experiment: as above
[13] = biological target: HLA-A*03:01; experiment: as above
[14] = biological target: HLA-A*26:01; experiment: as above
[15] = biological target: HLA-A*02:16; experiment: IEDB peptide-MHC binding, purified MHC/competitive/fluorescence; filed as Kd, often an IC50 or EC50 that approximates it; ≥ and ≤ were set here for values at or beyond the usual limits of such assays
[16] = biological target: HLA-A*02:19; experiment: as above; conditions: source organism: Vibrio antiquarius
[17] = biological target: HLA-A*68:02; experiment: as above; conditions: source organism: Vibrio antiquarius
[18] = biological target: HLA-A*69:01; experiment: as above
[19] = biological target: HLA-B*18:01; experiment: as above
[20] = biological target: HLA-B*39:01; experiment: as above
[21] = biological target: HLA-A*02:01; experiment: as above
[22] = biological target: HLA-B*57:01; experiment: as above
[23] = biological target: HLA-A*02:12; experiment: as above; conditions: source organism: Vibrio antiquarius
[24] = biological target: HLA-B*27:03; experiment: as above
[25] = biological target: HLA-B*15:01; experiment: as above
[26] = biological target: HLA-A*24:03; experiment: as above; conditions: source organism: Vibrio antiquarius
[27] = biological target: HLA-A*02:03; experiment: as above; conditions: source organism: Vibrio antiquarius
[28] = biological target: HLA-B*46:01; experiment: as above
[29] = biological target: HLA-B*51:01; experiment: as above
[30] = biological target: HLA-A*03:01; experiment: as above; conditions: source organism: Vibrio antiquarius
[31] = biological target: HLA-A*26:01; experiment: as above
[32] = biological target: HLA-B*44:02; experiment: IEDB peptide-MHC binding, purified MHC/direct/fluorescence; filed as Kd, often an IC50 or EC50 that approximates it; ≥ and ≤ were set here for values at or beyond the usual limits of such assays; conditions: source organism: Yersinia enterocolitica
[33] = biological target: HLA-A*24:03; experiment: as above
[34] = biological target: HLA-A*23:01; experiment: as above
[35] = biological target: HLA-B*08:01; experiment: IEDB peptide-MHC binding, purified MHC/competitive/fluorescence; filed as Kd, often an IC50 or EC50 that approximates it; ≥ and ≤ were set here for values at or beyond the usual limits of such assays; conditions: source organism: Salmonella enterica subsp. enterica serovar Typhi
[36] = biological target: HLA-A*02:16; experiment: IEDB peptide-MHC binding, purified MHC/direct/fluorescence; filed as Kd, often an IC50 or EC50 that approximates it; ≥ and ≤ were set here for values at or beyond the usual limits of such assays; conditions: source organism: Influenza A virus (A/England/654/2007(H1N1))
[37] = biological target: HLA-A*02:19; experiment: as above; conditions: source organism: Influenza A virus (A/England/654/2007(H1N1))
[38] = biological target: HLA-A*68:02; experiment: as above; conditions: source organism: Influenza A virus (A/England/654/2007(H1N1))
[39] = biological target: HLA-A*29:02; experiment: as above; conditions: source organism: Influenza A virus (A/England/654/2007(H1N1))
[40] = biological target: HLA-A*02:11; experiment: as above; conditions: source organism: Influenza A virus (A/England/654/2007(H1N1))
[41] = biological target: HLA-A*02:12; experiment: as above; conditions: source organism: Influenza A virus (A/England/654/2007(H1N1))
[42] = biological target: HLA-A*02:03; experiment: as above; conditions: source organism: Influenza A virus (A/England/654/2007(H1N1))
[43] = biological target: HLA-A*01:01; experiment: IEDB peptide-MHC binding, purified MHC/competitive/fluorescence; filed as Kd, often an IC50 or EC50 that approximates it; ≥ and ≤ were set here for values at or beyond the usual limits of such assays; conditions: source organism: Influenza A virus (A/Yokohama/22/2002(H1N2))
[44] = biological target: HLA-B*15:17; experiment: as above; conditions: source organism: Influenza A virus (A/Yokohama/22/2002(H1N2))
[45] = source organism: Pseudomonas aeruginosa
[46] = source organism: Vibrio antiquarius
[47] = source organism: Toxoplasma gondii ME49
[48] = source organism: Yersinia enterocolitica
[49] = source organism: Burkholderia mallei ATCC 23344
[50] = source organism: Pseudomonas aeruginosa UCBPP-PA14
[51] = source organism: Salmonella enterica subsp. enterica serovar Typhi
[52] = source organism: Influenza A virus (A/England/654/2007(H1N1))
[53] = source organism: Influenza A virus (A/Yokohama/22/2002(H1N2))

Kd [1, 45]: 12.6 µM
Kd [2, 45]: ≥ 20 µM
Kd [3]: ≥ 20 µM
Kd [4, 45]: ≥ 20 µM
Kd [5, 45]: ≥ 20 µM
Kd [6, 45]: ≥ 20 µM
Kd [7, 45]: ≥ 20 µM
Kd [8, 45]: ≥ 20 µM
Kd [9, 45]: ≥ 20 µM
Kd [10, 45]: ≥ 10 µM
Kd [11, 45]: ≥ 20 µM
Kd [12, 45]: ≥ 20 µM
Kd [13, 45]: ≥ 20 µM
Kd [14, 45]: 1.95 µM
Sequence: DLPPAIAAE

Sequence: FDLFGITLY
Kd [15, 46]: ≥ 20 µM
Kd [16]: ≥ 20 µM
Kd [17]: ≥ 20 µM
Kd [18, 46]: ≥ 20 µM
Kd [19, 46]: 0.279 µM
Kd [20, 46]: ≥ 20 µM
Kd [21, 46]: ≥ 20 µM
Kd [22, 46]: ≥ 20 µM
Kd [23]: ≥ 20 µM
Kd [24, 46]: ≥ 20 µM
Kd [25, 46]: ≥ 20 µM
Kd [26]: ≥ 20 µM
Kd [27]: ≥ 20 µM
Kd [28, 46]: ≥ 20 µM
Kd [29, 46]: ≥ 20 µM
Kd [30]: ≥ 20 µM
Kd [31, 46]: ≥ 20 µM

Sequence: FGGGPWWEV
Kd [15, 47]: 0.0084 µM
Kd [21, 47]: 0.0122 µM

Sequence: GYGRVNAGK
Kd [1, 48]: 9.1 µM
Kd [2, 48]: ≥ 20 µM
Kd [4, 48]: ≥ 20 µM
Kd [5, 48]: ≥ 20 µM
Kd [32]: ≥ 20 µM
Kd [6, 48]: ≥ 20 µM
Kd [7, 48]: 6.54 µM
Kd [8, 48]: ≥ 20 µM
Kd [9, 48]: ≥ 20 µM
Kd [10, 48]: ≥ 20 µM
Kd [33, 48]: 10.3 µM
Kd [11, 48]: ≥ 20 µM
Kd [12, 48]: ≥ 20 µM
Kd [13, 48]: ≥ 20 µM
Kd [14, 48]: ≥ 20 µM

Sequence: PFFFGFSHF
Kd [33, 49]: 0.704 µM
Kd [34, 49]: 0.024 µM

Kd [1, 45]: 12 µM
Kd [2, 50]: ≥ 20 µM
Kd [3]: 0.052 µM
Kd [4, 50]: ≥ 20 µM
Kd [5, 50]: ≥ 20 µM
Kd [6, 50]: ≥ 20 µM
Kd [7, 45]: 0.197 µM
Kd [8, 50]: ≥ 20 µM
Kd [9, 50]: ≥ 20 µM
Kd [10, 50]: ≥ 20 µM
Kd [33, 50]: ≥ 20 µM
Kd [11, 50]: ≥ 20 µM
Kd [12, 50]: ≥ 20 µM
Kd [13, 45]: 0.252 µM
Kd [14, 50]: ≥ 20 µM
Sequence: RTGTRLLGR

Sequence: WLMKYPYQL
Kd [20, 51]: ≤ 0.001 µM
Kd [21, 51]: 0.0002 µM
Kd [35]: 0.0886 µM

Sequence: WTGMVDGWY
Kd [36]: ≥ 20 µM
Kd [37]: ≥ 20 µM
Kd [38]: ≥ 20 µM
Kd [39]: ≥ 20 µM
Kd [40]: ≥ 20 µM
Kd [41]: ≥ 20 µM
Kd [33, 52]: ≥ 20 µM
Kd [42]: ≥ 20 µM
Kd [34, 52]: ≥ 20 µM
Kd [13, 52]: ≥ 20 µM
Kd [43]: 0.0103 µM
Kd [18, 53]: ≥ 20 µM
Kd [19, 53]: ≥ 20 µM
Kd [20, 53]: ≥ 20 µM
Kd [21, 53]: ≥ 20 µM
Kd [22, 53]: ≥ 20 µM
Kd [24, 53]: ≥ 20 µM
Kd [44]: ≥ 20 µM
Kd [25, 53]: ≥ 20 µM
Kd [28, 53]: ≥ 20 µM
Kd [29, 53]: ≥ 20 µM
Kd [31, 53]: ≥ 20 µM
